Assay results as given in US20240207464A1.

Key:
[1] = target: Protein G (Dynabeads Protein G, Thermo Fisher Scientific) (UniProt P19909); test: immunoprecipitation with Dynabeads Protein G after storage in human plasma at 37 C, 0 day point; share of radioactivity bound to Protein G
[2] = target: Protein G (Dynabeads Protein G, Thermo Fisher Scientific) (UniProt P19909); test: immunoprecipitation with Dynabeads Protein G after storage in mouse plasma at 37 C, 0 day point
[3] = target: Protein G (Dynabeads Protein G, Thermo Fisher Scientific) (UniProt P19909); test: immunoprecipitation with Dynabeads Protein G after storage in monkey plasma at 37 C, 7 day point
[4] = target: Protein G (Dynabeads Protein G, Thermo Fisher Scientific) (UniProt P19909); test: immunoprecipitation with Dynabeads Protein G after storage in human plasma at 37 C, 1 day point
[5] = target: Protein G (Dynabeads Protein G, Thermo Fisher Scientific) (UniProt P19909); test: immunoprecipitation with Dynabeads Protein G after storage in mouse plasma at 37 C, 7 day point
[6] = target: Protein G (Dynabeads Protein G, Thermo Fisher Scientific) (UniProt P19909); test: immunoprecipitation with Dynabeads Protein G after storage in mouse plasma at 37 C, 1 day point
[7] = target: Protein G (Dynabeads Protein G, Thermo Fisher Scientific) (UniProt P19909); test: immunoprecipitation with Dynabeads Protein G after storage in monkey plasma at 37 C, 0 day point
[8] = target: Protein G (Dynabeads Protein G, Thermo Fisher Scientific) (UniProt P19909); test: immunoprecipitation with Dynabeads Protein G after storage in human plasma at 37 C, 7 day point
[9] = target: Protein G (Dynabeads Protein G, Thermo Fisher Scientific) (UniProt P19909); test: immunoprecipitation with Dynabeads Protein G after storage in rat plasma at 37 C, 7 day point
[10] = target: Protein G (Dynabeads Protein G, Thermo Fisher Scientific) (UniProt P19909); test: immunoprecipitation with Dynabeads Protein G after storage in human plasma at 37 C, 14 day point
[11] = target: Protein G (Dynabeads Protein G, Thermo Fisher Scientific) (UniProt P19909); test: immunoprecipitation with Dynabeads Protein G after storage in monkey plasma at 37 C, 1 day point
[12] = target: Protein G (Dynabeads Protein G, Thermo Fisher Scientific) (UniProt P19909); test: immunoprecipitation with Dynabeads Protein G after storage in rat plasma at 37 C, 1 day point
[13] = target: Protein G (Dynabeads Protein G, Thermo Fisher Scientific) (UniProt P19909); test: immunoprecipitation with Dynabeads Protein G after storage in rat plasma at 37 C, 0 day point

recovery rate (%) by beads [1]: 95% | recovery rate (%) by beads [2]: 98.1% | recovery rate (%) by beads [3]: 90.5% | recovery rate (%) by beads [4]: 90.5% | recovery rate (%) by beads [5]: 93.1% | recovery rate (%) by beads [6]: 95% | recovery rate (%) by beads [7]: 92.9% | recovery rate (%) by beads [8]: 81% | recovery rate (%) by beads [9]: 90.4% | recovery rate (%) by beads [10]: 76.4% | recovery rate (%) by beads [11]: 90.4% | recovery rate (%) by beads [12]: 94.8% | recovery rate (%) by beads [13]: 97.4%
Substance: radioconjugate (Example 1): conjugate with rituximab by using 225Ac-labeled DOTAGA-DBCO (antibody)
